According to patent US20170239346A1, “NOVEL COCAINE HAPTENS AND NANOFIBER-BASED COCAINE VACCINES” (priority 2016, published 2017):
Residues, ends and D or L forms follow the SMILES beside them. *: point of attachment. X1 = COC(=O)[C@H]1[C@@H](OC(=O)c2ccccc2)C[C@@H]2CC[C@H]1N2CCCCC(=O)*

Assay: Limulus amebocyte lysate (LAL) chromogenic end point endotoxin assay
Details: same volume and concentration used for immunizations

**Q.** For `COC(=O)[C@H]1[C@@H](OC(=O)c2ccccc2)C[C@@H]2CC[C@H]1N2CCCCC(=O)NCC(=O)NCC(=O)NCC(=O)N[C@@H](Cc1ccccc1)C(=O)N[C@@H](CCCCN)C(=O)N[C@@H](Cc1ccccc1)C(=O)N[C@@H](CCC(=O)O)C(=O)N[C@@H](Cc1ccccc1)C(=O)N[C@@H](CCCCN)C(=O)N[C@@H](Cc1ccccc1)C(=O)N[C@@H](CCC(=O)O)C(N)=O` [CocKFE8] (X1-GGGFKFEFKFE-NH2), which endotoxin levels is on record?
**A.** less than 0.1 EU/mL
